Our source for the binding values is publication PMC11374129.

For the data set, the target named is T1, EnvZ (Escherichia coli K12) (UniProt P0AEJ4).
T1 sequence: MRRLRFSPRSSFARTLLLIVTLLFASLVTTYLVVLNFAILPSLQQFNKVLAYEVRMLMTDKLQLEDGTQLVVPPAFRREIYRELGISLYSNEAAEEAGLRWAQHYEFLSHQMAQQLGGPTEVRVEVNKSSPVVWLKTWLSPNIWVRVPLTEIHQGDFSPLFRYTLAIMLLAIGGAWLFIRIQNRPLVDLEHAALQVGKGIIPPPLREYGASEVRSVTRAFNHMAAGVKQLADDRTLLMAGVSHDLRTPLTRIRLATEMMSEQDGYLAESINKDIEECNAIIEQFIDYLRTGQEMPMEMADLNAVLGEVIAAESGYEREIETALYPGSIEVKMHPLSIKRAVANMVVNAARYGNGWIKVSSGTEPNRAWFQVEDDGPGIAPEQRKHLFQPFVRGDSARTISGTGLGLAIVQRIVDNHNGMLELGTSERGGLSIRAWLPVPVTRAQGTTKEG
Nature of the data set: EMSA. For orientation: Mobility shift assays separate free from complexed probe on a gel.

As for “CACGGCGTGTTCTTCCGACAACGTTCTTAAAAAAACTTCTCTCTCCCAGGTCACACCAGTCACAGAGATTGGCTGTGAGTGTCGCTGTGCACAAACCGCGCACAGACTCATACAGTCCCGGCGGTTCCGTTCACAACCCACGCCTCATCCCCACCGACCCAACACACACCCCACAGTCATCGCCACCGTCATCCACAACTCCGAC (double strand) [oriC]”, the binding result is listed as “no binding”.
